Measured values from the DeepSol protein solubility set.

Assay: soluble on expression in E. coli; label from the status in PepcDB or PDB records

Question: For “MAHHHHHHMAAVTQQGNDTRKLRCNVYVASLPLDFDDDQLFDLFSPYGRISSARIMRSKGARQSRGYGFVLFRHASSAEKAIDSLVGYVIGGSRIQVRLAHPEASVAYSGQRGSRSGNSTPGALPEKTLPAASGVITPPPPSSAIISHPNDSGMMVQTYPITTMYPTMYPSVVPQIIAQPQAPVPAAMQQVVFLPQYAQQSNQSTPPTFYMMVPDAMQAVPPTLS”, which “soluble on expression in E. coli” value is on record?
Answer: soluble

Question: For “MAHHHHHHMAAYGIVESPDNVDYKTKCCCQTTDGVYFQVPKEYFRLHANLSRRKLLIAEPFGVPLDSSAFESLVVLLEKAAIVSPAAATAGTEVVSKGDGAKQQWIKDLNKRQQKFVGACLGVTTWDGADVYFYEEKLPKESDVVWVKVIQVNDTSAVVQLLEYGNHEGIIPYTEITRIRIRAIGKVIKVGKNEAAQVIRIDKDKGYIDLSKKQVTLKEAKDCEARFFKGNEVRSVVCHVADECGVPPAEAMKRIAYPLYRRQPGKHAWEWLYELNQTKDVKGILGDLEISEAEIKVLMTTLEHTMRTEIATIHADIEMTCFQCDGVNALREVLLVGRDFKAGKDPLIPISVTIVGPPKYRLRAKTELKEEGIVRMKEAIEMMKIEMAKRGGILKVVAGPFVLGEEEHTKEERNEDAEDDEGEDTD”, which “soluble on expression in E. coli” value is on record?
Answer: not soluble

Question: With “MAHHHHHHMACDFELPLFAAPCSEVLSTQMSVVDGKMAEKSDKAKRTARASACMIRKGFFSHFPQAILTSPESGIKTAPHPWSNASLMMAADAFSVGLMLRLRLFSIICRNPSPKPTAAGGRFAGYVFCTIPRLSADNCRRTALLKKSWSYKRMPKMAAKYKKRDAVTSISAMVKELSAGMARTDRRNFSLRDTVW” as the sequence, how does the “soluble on expression in E. coli” value read?
Answer: not soluble

Question: With “MAHHHHHHMAKHSTFKNLVKLHGDMKKEELLVLFFHSCILDNNFIYKLNDEQKYEKSESHEKIKISNGYIKHMTDVGSGKFFLSRILIDPEWRSNSSSYNFLYQSVDTNDTYNLNLVKIENSLVVQIINTAQPSVVHSVTIDVGEYVNECTAEEGKTDNIEDRVMMEKLEGVFQTHILSHMKKGSSNNILGDNSSSKGKGPKGLIIESNANEHFRNVFQTNPDPYLLPNFNANHFDDKNPNIGRSLIPDLRNNVPILKPDGLLVGPDNKFFNPKNLRYDPIGPFGNEPNADNKPFEFQDNFPF” as the sequence, how does the “soluble on expression in E. coli” value read?
Answer: not soluble

Question: With “MAHHHHHHMALLVYLNNKQTHSFIAVRKSSSLLFSPGNFKAIYQRIYEHLNDQYEERGQLEAGEEILTVKPNVFAQNGVIDFDGVRKMWTSHIVPQLRRCVTGDHLANTTDNSVVSIEESAVFCDIGSGVGNVCLQLLAETNCRKVVGVEVIPSRHRAATTAFAKALSYFPENFSGKQAIFIQDDFVNCARRMVEENVNVIFTHSWMFDDELMKRLTELVVSLPALLCVVTSRPLHENLLVGSQMKLVSYVHLTADWNDEAPFFIYRKIT” as the sequence, how does the “soluble on expression in E. coli” value read?
Answer: not soluble

Question: Which “soluble on expression in E. coli” value does the source give for “MAHHHHHHMAQSLVWRYLGPEDTHRCLDAPDVPSVRNLLVEIDDGMDGKLINCRNYNKGQLMIVLDMLAHLIVFTKTCSMSLEKVSTIVGIMLELHRESMSNQYTRSQSYHRLRELMLLHSVPRPPFSCGIFSVADVQHIDEYLLLSYFRHYKMYVYAFVPQRLANIHSVSVGHNHCVPPLGLPALTTATPRAEWIAKVEDTHRQMEERQMEVEDVRSAEYEEEWLKHRYLNGTHYSEGLREQLQSIKRDVSDKALNQLDLIEARLVEIEKKVEIVQQRQDGKGGKRKK” here?
Answer: not soluble

Question: With “MAHHHHHHMASGCLKYASVDDFIAKCILSRDPYQPEFTQAVREVMTSLWPFLQKNPKYTQDGLLERIVEPERVIQFRVPWVDDKGVTHVNRAFRVQFNSAIGPYKGGMRFHPSVNLSILKFLGFEQTFKNSLTTLPMGGGKGGADFDPKGKSDCEVMRFCQSLVAELYRHIGADTDVPAGDIGVGSREVGYMNGMYWKLRNTNECTFTGKGLAFQGSAIRPEATGYGLVYFVQSMLTHVNDSLEGKTVLVSGSGNVAQYAIEKCMELGAKVITASDSKGYIQDPSGFDKVKLAKLMKLKNECRGTLEEYARETGVTYVPGKRPWCVKADIALPCATQNEIEGADAKTMLTNGVKLVAEGANMPTTEEATEIFQKAGVLFAPGKASNAGGVAISGLEMSQNAARLVWDAEEVDSRLRSIMSSIHDSCVQYGEKDGKVSYVDGANIAGFACFLRRRTFATRVSPVHQVLCT” as the sequence, how does the “soluble on expression in E. coli” value read?
Answer: soluble

Question: Which “soluble on expression in E. coli” value does the source give for “MAHHHHHHMAVAYVFDGAVLKQMSLEAGHPKFTVLDTPLCSDSAVTCFGKDEFYFINGSVPNVLRHFGGRSGCTEHFLPGPAHCLLVHRQKVYCCGVDCLYVFDPLGEEVETIELGQQIKELTAADHGFVFVNDRHELYAFHFTRGVKIVGTKGPVSKLLGHHNRYAVVLLDNGDVISVNEEAEVRENLFPLKIKERFVALDTGMTLALREDELALHMNGTWLCLDGFKGRELQFLGVPLTPAEDACTICFCDFEDGDGVRLDCGHPFHRDCLAEFSTHAKSFVEKGEHIVFTYAVCPSGCGTHIRHAAAPLSAYMNDLYRAVTKDAEGRLREMENKTLEDLYYYVCCRCEKPYYGGNRWCSRTISGEPCKKPSELICSDCNDDFLCPSHNHDFVLYKCRYCCNPATHLSFGNRYMCDACNKKWEGTEPEPMECPGAEKCPLGGAHPTGGSQPLGCMLCTLFDKCDAKHFFPPQ” here?
Answer: not soluble

Question: With “MAHHHHHHMAYALVEADSISFSLKPADLCADSPLEYGSPREKETNGLSPCGDKGPLTPFGVRPHLFSKGWWRLVVLSSVPLDSYRAIPKDTWSFTEKGQLKQGSNALLFSYACTVSDRTDITLLLDVHSQRPIPFRIKIFRAGVEGPPVFVSEECVNHLFVPHVAVDVPEKVKNVAYIIEAWLDKEKVEEWERMRRLSQELKFLLAAEAARVKAEMKQQKELQEYHEDPRAFKERLLNQEMGPVENLVPTPLREQMSVSSKKGRPSVDKRRTLSNAAPSRQTIVRTSVTPSTPASAVAVHIDSIDPELVVTYDLRLYFSAKTDVKCVATGKDPLTTMRGLWVHQLILFLGKPLRSPVVAREGSVGSRRILLHLLKNYTRRII” as the sequence, how does the “soluble on expression in E. coli” value read?
Answer: not soluble

Question: For “MAHHHHHHMAYPYNAYLGYTQPPTQYGQPPVVAGAHGHLPVTTPLPYNAQSAYGGAQPP”, which “soluble on expression in E. coli” value is on record?
Answer: not soluble

Question: For “MAHHHHHHMAYPYNAYLGYTQPPTQYGQPPVVAGAHGHLPVTTPLPYNAQSAYGGAQPPMPTSTGVYAPSARHMNDNQELMEWFRAVDTDGSGAISVPELNAALSSAGVPFSLATTEKLLHMYDKNHSGEITFDEFKDLHHFILSMREGFRKRDSSGDGRLDSNEVRAALLSSGYQVSEQTFQALMRKFDRQRRGSLGFDDYVELSIFVCRVRNVFAFYDRERTGQVTFTFDTFIGGSVSIL”, which “soluble on expression in E. coli” value is on record?
Answer: soluble

Question: For “MAHHHHHHMCLGRSSGSALDTPLGAWWGGKRVAEIPPCPAESVTFVQLIARHFSPFVLRQHLPGAQDGLVTSSVQTREVAHKPVGCDVAVLVVVKRGAQVLRLPFARPHAKIPQKINKKLVRHALLTTRPLLLLQLKELSQCLNDRLWAAPTTQGALHTQKHAILARVVRVTPQHRRHRTTKAKQQQQQKQRNCSLVKSAHKT”, which “soluble on expression in E. coli” value is on record?
Answer: not soluble

Question: Which “soluble on expression in E. coli” value does the source give for “MAHHHHHHMDAPVNVFLRFGLSHSERLNHLLERVGTAQAAFRIVGPRQQEGVARTPAHPHDGADCARVGAPFSVHSGSCSHTCKGEAHDELCASLARLPPLPSPPPASHTCYCLHRTRFRCFCFPSPSLLQRRTLGGGGIGVGRAADVQHPFNGQEPALSVYFTHCHAGLRRTSPRCLISYCGRVSSLRFAFPLGDQVTFFVPLFHTDTSSMGTTHEYEPPVAMKPLEELTDADRREMRDLGIGEGMFNCILTSCMKFALSGGWSVRKHDAKYDIVWETKPSQNSNKQAMRFTAKVPNCNTGSLEAILVADEYLEDDPNVSYMYKYDRLLQQNHAEKRIAGNVTVQSTHYGAPVMFVAPRHIISYVTLGALLTPAQQKELWIRPTGLRDQLADAERKDDLMAFTQCCIDYTGDAVELRKGSERGHVYSYSLLGQEEPDGSMTVTMTLDIDPAGKLPAKVVDMSSDEQHKKMQRIVELLKAKGPQPHLCSVYQNTRDFPFRNPSKGEGEGKRS” here?
Answer: soluble

Question: Which “soluble on expression in E. coli” value does the source give for “MAHHHHHHMDEEVVLRGVEDITCRCVYSHVYVYARVCVFGYVLPSSSVVYRGTLAMECTFGVHEKKNKMKKNKCYLRGQTIGTRDTVCGVMCLNIPPRHCYCSFFLFPFYNPFLL” here?
Answer: not soluble

Question: Which “soluble on expression in E. coli” value does the source give for “MAHHHHHHMDEGLPIDASEAQLEAIRREVAQYPLLSLSLPLNKESMIVKEMEHDDAYLAQTLSLFGASPVSTKQYDFGSIRYSRRDGNCFYRCAGFRLCELIVEHPERAAEYVALLKSREESLSRLFGLFVFDFTDALAEILKGVADKTITSVAQVYNRFISDDAAYVLAALRYLISAYLQEHEEEYEPFVSGLGYGAVRDYCNAEVELVDHESDNVQLAAFAKAFNVCIKVYALDRNAGNNITEYSFNGEDNDAGDRLVVGLLYMPGHYNLLGRGPG” here?
Answer: not soluble

Question: With “MAHHHHHHMDSPTEFSCGTQWDDDRRGEEPLLPELTLHGCGLRNLSLIVRGAQGAVYSAHDENGNRFAVKRLFTQRSDFGIRGVSEGALREATLLTLVRQEMEKLVHDTAFDVVRLQGVVEAPYKELCLILEYCSLDLSQVVVKSKRHTRSFPLVAEGPQVRCPVLSNMGVVRYLLRGILQILNNLHVNCRIIHRDVKLSNFLVRGDGSVRLSDFGSARLLHETVEEKEAAECVTSDPQDEDEVDCSDPFSHSCEGYTPAAQRTTLIYQAPECLLGERTYTTAVDVWAVGIVFAEILLQRHLFRSVNELTLISDIWRLLGTPSTKGEDPNIQGTNGVTFAAPTEPTVDVKFNDDIVSPEGRDLLKKMLEVDPKKRVTAADALRHSFLTSVDAQLSLKEAPALWREKVKECLEGGTQAVPMGAPFLALDDDEEEEEEEEDVDMNMATL” as the sequence, how does the “soluble on expression in E. coli” value read?
Answer: not soluble

Question: With “MAHHHHHHMELLNQENDGFLEDMSDSINKQIKELENVPSKDIIRNIWFKVHCNERNKFHSLIYSIRKIHDKYFSDTNKNEELGKKVWNKCCAIITEELLKLDSIQNSQFHNLMQQETVTLQEFEDFVKFSVNGYKNTKKETKKICIKKLKKALNQRL” as the sequence, how does the “soluble on expression in E. coli” value read?
Answer: soluble

Question: With “MAHHHHHHMENIKLGFMGLGQMGSALAHGIANANIIKKENLFYYGPSKKNTTLNYMSSNEELARHCDIIVCAVKPDIAGSVLNNIKPYLSSKLLISICGGLNIGKLEEMVGSENKIVWVMPNTPCLVGEGSFIYCSNKNVNSTDKKYVNDIFNSCGIIHEIKEKDMDIATAISGCGPAYVYLFIESLIDAGVKNGLSRELSKNLVLQTIKGSVEMVKKSDQPVQQLKDNIVSPGGITAVGLYSLEKNSFKYTVMNAVEAACEKSKAMGSK” as the sequence, how does the “soluble on expression in E. coli” value read?
Answer: soluble

Question: For “MAHHHHHHMEQQVIAVHYQRMEEWLSDRKAVLGKKHKKEFFRLMELAPKLEQLVRYEIPAQHKQNKRLSGLLDDAYGSIEDAAKARKNLEERQKRFFQEYGLVESQGAEEEDLEAVIEAKIASSTTSLNEALREFGRSPHLESFREAYVRAAKMYSMGMYDDNVFSLHLPWLDRVYQERFYKSKVDIHHHEQHQKQRAGERDQVAVKASTGPCNIDWGDEDTVDLVDVGETVEIKWDEEALEVAVEGAVRNCSENNKRMDDGCEEKPTDTVKGIFTIDVSNAAHRKNILTELQAFACFASERSSMDDESLAEPAAAVEVLVKKLTASTEAVFVRMKTTPTLRFSFMEEVRRLQRGIAAASMRKSNSQARVHQIQEEIERLGPQLDALLIAAGNCRDECLAELLKMFPGRTVTIVGDINKYL”, which “soluble on expression in E. coli” value is on record?
Answer: not soluble

Question: For “MAHHHHHHMERYESIAERAGFARSQVLPRGSGGSSSASVCYENAANYLQHARGADYATASCSVPVDIWDALCQGEASVLRVGQLGEGRQRLIAYESCTTSSHSGDLSSRLASLEKSLDKLLSEFPKTAEELVTLDYNASLCSAAARSVLTAVPSFLSISGLLRTINNKLCSLDGFSREVLPLMRCDDDVSRQCLLVAGRLDTLEEKLRTTEALVAALGHTSAASNAIFERIGARYGETTRAATM”, which “soluble on expression in E. coli” value is on record?
Answer: not soluble
